The values below come from US20250114430A1 (UNIVERSITY OF NORTH CAROLINA AT CHAPEL HILL, published 2025).

Assay [1] has as its target T1, Orai1 plasma membrane Ca^2+ channel (endogenous, HEK293T cells and ARDS patient immune cells) (UniProt Q96D31 1-301, limits assumed). The experiment in a line: cell-based or functional assay.
Assay [2] concerns the target T1, Orai1 plasma membrane Ca^2+ channel …. Briefly: cell-based or functional assay. The source holds these as a separate data set.
Assay [3] deals with T2, peptide of Orai1's second extracellular loop (OP2).
T2 construct: Peptide corresponding to amino acids 195-234 of Orai1
T2 peptide: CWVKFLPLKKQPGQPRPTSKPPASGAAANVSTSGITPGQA
The experiment in a line: dynamic light scattering (Z-average). The text has this:
(§1) Endogenous Orai1/store operated Ca²⁺ influx have been extensively studied in HEK293T cells, so this cell type was used to understand ELD607-Orai1 interactions. […] Thapsigargin is a SERCA pump inhibitor that prevents uptake of cytosolic Ca²⁺ into the endoplasmic reticulum. Thapsigargin is commonly used to stimulate Orai1/store operated Ca²⁺ influx. […] Dynamic light scattering (DLS) was used to evaluate binding of ELD607 to peptides of Orai1 extracellular loops. […] Thus, it was concluded that ELD607 interacts with Orai1.

In assay [4] the target is T3, Orai1 extracellular peptide 1 (OP1).
T3 peptide: EVQLDADHDYPPGL
Briefly: dynamic light scattering, Z-average increased.
Source text: as §1

T1 sequence (Q96D31 whole entry): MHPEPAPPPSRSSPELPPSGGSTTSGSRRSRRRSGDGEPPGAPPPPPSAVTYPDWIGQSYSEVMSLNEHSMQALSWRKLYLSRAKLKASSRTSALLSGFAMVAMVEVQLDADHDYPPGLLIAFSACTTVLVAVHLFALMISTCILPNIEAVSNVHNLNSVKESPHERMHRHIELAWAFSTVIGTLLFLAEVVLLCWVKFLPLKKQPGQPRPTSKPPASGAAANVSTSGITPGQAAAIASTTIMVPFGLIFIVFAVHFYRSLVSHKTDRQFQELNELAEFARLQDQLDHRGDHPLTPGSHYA

B1: ELD607 (peptide)
peptide: VHDIVNMLIRG
notes: Synthetic 11-residue peptidomimetic derived from ELD100 (H14R, deletion of positions 1-4, L16 deletion); also called ELD142-11
Consider B1, for which the “IC50, inhibiting store operated Ca^2+ influx in HEK293T cells” value in assay [1] was found to be 9 nM. Further, in assay [2], the “IC50 (Molar), Ca^2+ influx after Ca^2+ add back, HEK293T cells” value is 8.1e-08 Molar. Moreover, the binding result in assay [3] is given as “no binding”; in assay [4] it was “binds”.
Take DITLVHDIVNMLIHGL [ELD100 peptide]: the “IC50, inhibiting store operated Ca^2+ influx in HEK293T cells” value in assay [1] is 124 nM. Moreover, the “IC50 (Molar), Ca^2+ influx after Ca^2+ add back, HEK293T cells” value in assay [2] was 3.7e-08 Molar.
